In patent US20120122128A1:

What was measured:
[1] = target: FGFR3 of SEQ ID NO: 25 (Homo sapiens (Human)) (UniProt P22607); assay: cell-based or functional assay
[2] = target: SNAP-25 peptide comprising amino acids 134-197 of SEQ ID NO: 5 (human); assay: SPR (BIAcore 3000), peptide amine-coupled to CM5 chip, antibody as analyte, 1:1 fit
[3] = target: SNAP-25 peptide comprising amino acids 134-206 of SEQ ID NO: 5 (human); assay: as above

Sequence of FGFR3 of SEQ ID NO: 25 (Homo sapiens (Human)) (P22607 other isoform, or with tags, fused parts or gaps limits assumed): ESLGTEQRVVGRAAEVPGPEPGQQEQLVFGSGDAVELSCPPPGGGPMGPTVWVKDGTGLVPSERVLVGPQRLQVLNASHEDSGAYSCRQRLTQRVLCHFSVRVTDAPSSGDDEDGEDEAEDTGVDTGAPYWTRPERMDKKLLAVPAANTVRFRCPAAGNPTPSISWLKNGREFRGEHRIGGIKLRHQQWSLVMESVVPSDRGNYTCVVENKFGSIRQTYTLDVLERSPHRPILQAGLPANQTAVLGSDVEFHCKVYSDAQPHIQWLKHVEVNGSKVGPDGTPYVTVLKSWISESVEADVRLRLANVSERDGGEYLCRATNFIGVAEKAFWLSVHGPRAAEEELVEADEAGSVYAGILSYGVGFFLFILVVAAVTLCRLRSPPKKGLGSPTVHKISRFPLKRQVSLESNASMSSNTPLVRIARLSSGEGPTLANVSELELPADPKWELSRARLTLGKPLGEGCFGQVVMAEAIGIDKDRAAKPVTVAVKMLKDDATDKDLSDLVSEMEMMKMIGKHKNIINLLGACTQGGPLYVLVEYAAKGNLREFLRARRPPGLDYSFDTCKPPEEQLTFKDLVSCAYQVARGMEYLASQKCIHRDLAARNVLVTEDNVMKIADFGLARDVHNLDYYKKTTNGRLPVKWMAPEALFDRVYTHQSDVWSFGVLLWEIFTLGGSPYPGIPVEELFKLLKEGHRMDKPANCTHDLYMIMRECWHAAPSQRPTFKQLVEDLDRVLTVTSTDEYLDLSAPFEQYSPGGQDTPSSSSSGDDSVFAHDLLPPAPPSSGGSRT

Substance | EC50 (nM) of SNAP-25 cleavage, Western blot, PC-12 cells transfected with FGFR3 [1] [nM] | EC50 (nM) of SNAP-25 cleavage, Western blot, SiMa cells transfected with FGFR3 [1] [nM] | Kd [2] [nM] | koff [2] [s⁻¹] | kon [2] [M⁻¹ s⁻¹] | Kd [3] [nM] | koff [3] [s⁻¹] | kon [3] [M⁻¹ s⁻¹]
BoNT/A complex (from UniProt P0DPI0 2-1296) (enzyme) | 0.263 | 0.0377 | – | – | – | – | – | –
MC-6050 α-SNAP-25 mouse monoclonal antibody (Research & Diagnostic Antibodies) | – | – | 0.497 | 0.000882 | 1.78e+06 | 19800 | 0.00607 | 306
MC-6053 α-SNAP-25 mouse monoclonal antibody (Research & Diagnostic Antibodies) | – | – | 0.508 | 0.00118 | 2.32e+06 | 240 | 2.56e-05 | –
